This is an account of results in paper PMC5789954 (Proceedings of the National Academy of Sciences of the …, 2018).

The data set deals with the molecule itself. As to the kind of experiment: SEC. Background: SEC sorts molecules by how far they enter the pores of the column.

B1: CUB1-EGF-CUB2 fragment of C1r (domain or fragment, UniProt P00736 18-307, looked up)
chain: SIPIPQKLFGEVTSPLFPKPYPNNFETTTVITVPTGYRVKLVFQQFDLEPSEGCFYDYVKISADKKSLGRFCGQLGSPLGNPPGKKEFMSQGNKMLLTFHTDFSNEENGTIMFYKGFLAYYQAVDLDECASRSKSGEEDPQPQCQHLCHNYVGGYFCSCRPGYELQEDTHSCQAECSSELYTEASGYISSLEYPRSYPPDLRCNYSIRVERGLTLHLKFLEPFDIDDHQQVHCPYDQLQIYANGKNIGEFCGKQRPPDLDTSSNAVDLLFFTDESGDSRGWKLRYTTEII
modifications: N-linked carbohydrate at two sites (density seen in the crystals)
As usually defined, the stoichiometry N is a count of units in the complex or per binding partner. Regarding B1, the “stoichiometry N” value worked out at 2.

B2: CUB1-EGF-CUB2 fragment of C1s (domain or fragment)
chain: EPTMYGEILSPNYPQAYPSEVEKSWDIEVPEGYGIHLYFTHLDIELSENCAYDSVQIISGDTEEGRLCGQRSSNNPHSPIVEEFQVPYNKLQVIFKSDFSNEERFTGFAAYYVATDINECTDFVDVPCSHFCNNFIGGYFCSCPPEYFLHDDMKNCGVNCSGDVFTALIGEIASPNYPKPYPENSRCEYQIRLEKGFQVVVTLRREDFDVEAADSAGNCLDSLVFVAGDRQFGPYCGHGFPGPLNIETKSNALDIIFQTDLTGQKKGWKLRYHGDPM
modifications: N-linked carbohydrate at one site (density seen in the crystals)
For B2, the “stoichiometry N” value was 2.
